Measured values published in patent EP4793287A1, “TUMOR MICROENVIRONMENT SPECIFICALLY ACTIVATED CD47 ANTIBODY” (Affinity (Shanghai) Biopharmaceutical Co., Ltd., priority 2023, dated 2025).

Tests used:
[1] = system: Human red blood cells (RBCs); experiment: FACS binding to red blood cells
Description: Human red blood cells (RBCs) (XFB-RBC, 10 ml) were centrifuged, and the supernatant was discarded. The cells were resuspended in FACS buffer (PBS + 2% FBS) and counted, and the cell density was adjusted to 2×10^6/ml. 100 µl/well of this suspension was added to a 96-well plate. After centrifugation and removal of the supernatant, the antibody to be tested (initial concentration of 100 nM, 5-fold gradient dilutions, 8 dilution points) was added at 100 µl/well, mixed with the cells, and incubated at 4 °C for 1 hour. Cells were washed by centrifugation with FACS buffer for three times, then added with 100 µl/well of Goat anti-Human IgG Fc Secondary Antibody, PE (eBioscience™, Invitrogen, Cat# 12-4998-82, 1:200 dilution) and incubated at 4 °C for 1 hour. After three washes with FACS buffer by centrifugation, the cells were resuspended in 200 µl/well of FACS buffer and analyzed using FACS (BECKMAN COULTER, CytoFLEX). Data were fitted and the results were analyzed using software (GraphPad Prism 8).

[2] = system: Human small cell lung cancer SHP-77 cells; experiment: In vivo efficacy, subcutaneous SHP-77 tumor model (Example 11); design: species or system CB17-SCID mice; details: for T/C ratio / TGI inhibition rate: after 38 days of treatment
Description: Human small cell lung cancer SHP-77 cells were subcutaneously transplanted into CB17-SCID mice to establish an in vivo model. SHP-77 cells were cultured according to standard culture conditions and were collected during the exponential growth phase for counting. Each mouse was inoculated on the right flank with 2.5×10^6 human small cell lung cancer SHP-77 cells (suspended in 0.1 ml of basal medium). After inoculation, when the tumors grew to 60-103 mm^3 (5 days post-tumor implantation), the mice were randomly grouped based on body weight and tumor volume. The experimental groups were divided as follows:
Treatment was started on the day of grouping. Mice were weighed, and tumor volumes were measured twice a week. Tumor volume was calculated using the formula: tumor volume = 1/2 × length × width × width (mm^3). The tumor growth inhibition rate TGI (%) was calculated as [1 - (Tt - T0) / (Ct - C0)] × 100%. The tumor inhibition rate T/C (%) was calculated as (Tt/T0) / (Ct/C0) × 100%. T0 represents the tumor volume of the test antibody group at the time of grouping; Tt represents the tumor volume of the test antibody group at each measurement; C0 represents the average tumor volume of the PBS group at the time of grouping; Ct represents the average tumor volume of the PBS group at each measurement.

Raji cells = experiment: FACS binding of CD47 antibody to Raji cells
Description: The required cell line, Raji (cultured in RPMI-1640 (ATCC Modification, Gibco, Cat# A10491-01) + 10% FBS (BI, Cat# 04-001-1A) + 1× P/S), was expanded to the logarithmic phase. Cells were collected and pipetted to create a single-cell suspension, followed by centrifugation and removal of the supernatant. The cells were resuspended in FACS buffer (PBS + 2% FBS) and counted, and the cell density was adjusted to 2×10^6/ml. 100 µl/well of this suspension was added to a 96-well plate (Corning, Cat# 3799). After centrifugation and removal of the supernatant, 100 µl/well of the antibody sample to be tested (initial concentration of 100 nM, 5-fold gradient dilutions) was added, mixed with the cells, and incubated at 4 °C for 1 hour. Cells were washed by centrifugation with FACS buffer for three times, then added with 100 µl/well of Goat anti-Human IgG Fc Secondary Antibody, PE (eBioscience™, Invitrogen, Cat# 12-4998-82, 1:200 dilution) and incubated at 4 °C for 1 hour. After three washes with FACS buffer by centrifugation, the cells were resuspended in 200 µl/well of FACS buffer and analyzed using FACS (BECKMAN COULTER, CytoFLEX). Data were fitted and the results were analyzed using software (GraphPad Prism 8).

B1: CD47 TMEAbody: CD47 TMEAbody conjugated with PEG of approximately 20K molecular weight (i.e., PEG20K) (conjugate)
VH: QQQLEESGGGLVKPEGSLTLTCTASGFSFSSGYDMCWVRQAPGRGLEWIACIYTRSSGGTCYASWAKGRFTISKTSSTVDLRMTSLTAADTATYFCAGGRSSYRLNLWGQGALVTVSS
VL: DVVMTQTPSPVEAAVGGTVTIKCQASQSISNELSWYQQKPGQPPKLLIYRASTLESGVSSRFKGSGSGTEFTLTISDLECADAATYYCQSTFYGDYGNAFGGGTEVVVK
- binding to red blood cells [1]: essentially no binding to red blood cells
- Tumor Volume ([2]; 0.3 mg/kg, D0): 79.15 mm^3
- Tumor Volume ([2]; 0.3 mg/kg, D3): 63.51 mm^3
- Tumor Volume ([2]; 0.3 mg/kg, D7): 44.29 mm^3
- Tumor Volume ([2]; 0.3 mg/kg, D10): 42.63 mm^3
- Tumor Volume ([2]; 0.3 mg/kg, D14): 42.49 mm^3
- Tumor Volume ([2]; 0.3 mg/kg, D17): 44.81 mm^3
- Tumor Volume ([2]; 0.3 mg/kg, D21): 74.08 mm^3
- Tumor Volume ([2]; 0.3 mg/kg, D24): 116.17 mm^3
- Tumor Volume ([2]; 0.3 mg/kg, D28): 142.04 mm^3
- Tumor Volume ([2]; 0.3 mg/kg, D31): 194.29 mm^3
- Tumor Volume ([2]; 0.3 mg/kg, D35): 272.39 mm^3
- Tumor Volume ([2]; 0.3 mg/kg, D38): 373.67 mm^3
- T/C ratio ([2]; 0.3 mg/kg): 29.52%
- TGI inhibition rate ([2]; 0.3 mg/kg): 75.38%
- Tumor Volume ([2]; 1 mg/kg, D0): 79.75 mm^3
- Tumor Volume ([2]; 1 mg/kg, D3): 69.70 mm^3
- Tumor Volume ([2]; 1 mg/kg, D7): 47.94 mm^3
- Tumor Volume ([2]; 1 mg/kg, D10): 36.61 mm^3
- Tumor Volume ([2]; 1 mg/kg, D14): 32.95 mm^3
- Tumor Volume ([2]; 1 mg/kg, D17): 20.93 mm^3
- Tumor Volume ([2]; 1 mg/kg, D21): 19.98 mm^3
- Tumor Volume ([2]; 1 mg/kg, D24): 27.75 mm^3
- Tumor Volume ([2]; 1 mg/kg, D28): 17.69 mm^3
- Tumor Volume ([2]; 1 mg/kg, D31): 21.42 mm^3
- Tumor Volume ([2]; 1 mg/kg, D35): 15.37 mm^3
- Tumor Volume ([2]; 1 mg/kg, D38): 14.44 mm^3
- T/C ratio ([2]; 1 mg/kg): 1.13%
- TGI inhibition rate ([2]; 1 mg/kg): 105.46%
- Tumor Volume ([2]; 3 mg/kg, D0): 79.00 mm^3
- Tumor Volume ([2]; 3 mg/kg, D3): 65.86 mm^3
- Tumor Volume ([2]; 3 mg/kg, D7): 44.80 mm^3
- Tumor Volume ([2]; 3 mg/kg, D10): 33.94 mm^3
- Tumor Volume ([2]; 3 mg/kg, D14): 27.48 mm^3
- Tumor Volume ([2]; 3 mg/kg, D17): 24.62 mm^3
- Tumor Volume ([2]; 3 mg/kg, D21): 9.14 mm^3
- Tumor Volume ([2]; 3 mg/kg, D24): 13.52 mm^3
- Tumor Volume ([2]; 3 mg/kg, D28): 10.79 mm^3
- Tumor Volume ([2]; 3 mg/kg, D31): 17.13 mm^3
- Tumor Volume ([2]; 3 mg/kg, D35): 14.44 mm^3
- Tumor Volume ([2]; 3 mg/kg, D38): 12.85 mm^3
- T/C ratio ([2]; 3 mg/kg): 1.02%
- TGI inhibition rate ([2]; 3 mg/kg): 105.53%
- tumor growth inhibition ([2]; 0.3-3 mg/kg): significant tumor growth inhibition
- changes in body weight ([2]; during the treatment period): No significant changes in body weight
- binding to Raji cells lower compared to 70H1 (Raji cells): approximately 60 fold
